Laboratory results published in US20160201045A1, “Endo-xylanase and Coding Gene and Use Thereof” (SHANGHAI INSTITUTES FOR BIOLOGICAL SCIENCES CHINESE ACADEMY …, priority 2013, published 2016).

Assays:
Type in all cases: biochemical
[1] = Detection on pH tolerance; settings: pH 6.5, 7.0 or 7.5, 50° C., 45 min; % of the highest activity
Experimental: In a 100 μl reaction system, birch xylan was added to a final concentration of 1% (w/w), and Na2HPO4/NaH2PO4 buffer (pH7.0) was added to a final concentration of 100 mM. A suitable amount of enzyme solution diluted by the abovementioned buffer was added to the reaction system for reaction at 50[…] for 10 minutes. 100 μl DNS were added to stop the reaction. For the control, 100 μl DNS were firstly added to the above reaction system before adding the enzyme solution. The reaction mixtures were subjected to a boiled water bath for 5 minutes to develop color. Absorbance value at 540 nm was detected by a microplate reader. After subtracting the absorbance value of the control from that of the sample, the enzymatic activity unit (U) was calculated based on the standard curve.
The enzyme solution was kept in buffers of different pH values (6.5, 7.0 and 7.5) or at pH 7.0 with addition of 70 mM mercaptoethanol at 50° C. for different times (15 min, 30 min, 45 min, 60 min, 75 min). Enzymatic activity was tested according to the above standard enzymatic activity detection steps (enzymatic activity was tested after reacting at pH7.0, 50° C. for 10 minutes). The specific activity value of Xyl7 obtained after storing at pH7.0, 50° C. for 0 minute and reacting at 50° C. for 10 minutes was used as a reference value, and its relative activity was defined as 100%. […]

[2] = TLC analysis on hydrolyzed products of birch xylan by Xyl7
Experimental: 1% (w/w) Birch xylan was treated by 15 U Xyl7 at pH7.0 and 50[…] for 10 min, 1 h, 4 h, and 12 h, respectively, to obtain the hydrolyzed products. […], each 5 μl, were subjected to TLC for identification. The standard samples were xylose, xylobiose, and xylotriose. The developing agent comprised ethyl acetate, acetic acid and water in a ratio of 2:1:1(V/V/V). The chromogenic agent was a solution of 1 mL aniline, 1 g diphenylamine and 5 mL 85% phosphoric acid dissolved in 50 mL acetone.

[3] = Screening of mutant clones for improved thermal stability (96-well, heat treatment, DNS); settings: 52.5° C. water bath for two hours
Experimental: Transformants were picked up by sterile toothpick to a LB liquid culture containing antibiotic and IPTG (in a final concentration of 1 mM) contained within the wells of a 96-well plate and cultured overnight at 37° C. and 200 rpm. Thallus was collected by centrifugation. 100 ul buffers having the optimum reaction pH were added to re-suspend the thallus. Clone from each well was divided into a control group and a treatment group, with 50 ul for each well. The control group was stored at 4° C. The treatment group was treated in a water bath having a suitable temperature for 2 hours. After adding 2% xylan to each well, the mixture was allowed to react under 37° C. for 1 hour. Enzymatic activity was detected according to the DNS method. After treatment, the treatment group of the wild type clone retained an enzymatic activity which was about 10˜20% of its control group. […] The thermal stability of finally obtained mutants was tested according to the method described in Example 3. The overnight thallus was re-suspended and divided into two groups, which were the control and treatment groups, respectively. […] Then the enzymatic activity was detected. The residual enzymatic activity of the treatment group was calculated as a percentage of the enzymatic activity of the treatment group in relative to that of the control group. […]

[4] = Thermal stability test of purified mutant proteins at 55° C. and 60° C.
Experimental: Enzymatic activity was tested according to the above standard enzymatic activity detection steps (enzymatic activity was tested after reacting at pH7.0, 50° C. for 10 minutes). The enzyme solution which was not subjected to heat treatment was used as a control. Its specific activity tested under pH 7.0, 50° C. was used as a reference value and its relative activity was defined as 100%. The relative activity of the treatment group was a ratio between the relative activity value obtained after storing at different temperatures for different times (treatment conditions) and the reference value. […] After storing at these temperatures for 45 min, the enzymatic activity decreased to be less than 50% of the maximum activity.
Transformants were picked up by sterile toothpick to a LB liquid culture containing antibiotic and IPTG (in a final concentration of 1 mM) contained within the wells of a 96-well plate and cultured overnight at 37° C. and 200 rpm. Thallus was collected by centrifugation. 100 ul buffers having the optimum reaction pH were added to re-suspend the thallus. […] Enzymatic activity was detected according to the DNS method. […] Then the enzymatic activity was detected. The residual enzymatic activity of the treatment group was calculated as a percentage of the enzymatic activity of the treatment group in relative to that of the control group. […]

B1: Xyl7: endo-1,4-β-xylanase of 505 amino acids, SEQ ID NO:2, from termite gut metagenome, expressed in E. coli with His tag (protein)
chain: MKKLIALSFIAAFFAPLFAQGPTWTTSTIQAYNGYDYELWNQNNAGTVSMKLTGDNGSGASAVGGTFTATWSNTQNVLFRSGKKWGSSSNQNHTQIGNMSINFAATWSSTDNVKMLGVYGWAYFTSANVPTKQENGTNASFSNQIEYYIIQDRGSYNPASGGTNAKKYGSATIDGIAYDFYVCDRINQPMLTGNGNFKQFFSVPQSASAHRTSGTISVSQHFNKWHELGMKMDGPLYEVAMKVESYTGSGSSNGSATVTKNLLTIGGTTPTPSSNSGGTTSSSSRASSSSRASSSSNAAVQATTCKTPLITYPTSTVPSDPYTACFKYTDDKCYVCKVENEGEFEGNMNTCGSGWVWDGTQIDNNLRDGYWYQEVPCPAGSSSSRSSSSSVAVSSSSRSSSSSVAASSSSRSSSSSASVSSSSEETPIRVLHTIPSKFRVRSLNNGALQIESNADVVLYLYDTKGKMAQKIEAPTGSSIVKLSVPAGIYIVRNVQTKEKLRVMVR
modifications: His tag; Intestinal tract metagenome of termite
[1]
  retained activity after storing in buffer: ≥ 50%
[2]; 10 minutes, pH7.0, 50
  hydrolyzed product of xylan, action time relatively short: oligoxylan
[2]; 12 hours, pH7.0, 50
  hydrolyzed product of xylan, action time relatively long: xylo-oligosaccharide, mainly including xylobiose, xylotriose and xylotetraose
[2]; excess enzyme
  final hydrolyzed product if the enzyme was excessive: xylose
[3]
  enzymatic activity of the treatment group as % of the control group: 10˜20%
[4]
  half life at 60° C.: less than 10 minutes
